The record followed here is publication PMC11112747, “Cyanovirin-N Binding to N-Acetyl-D-glucosamine Requires Carbohydrate-Binding Sites on Two Different Protomers” (Biochemistry, 2024).

One may read the pKd as −log10 of the Kd, conventionally taken in molar units. A low value points to a high Kd.

pKd: −log10 of the molar value.

The target of the assay is chemically synthesized dimannosylated peptide (DM), 12mer peptide from hemagglutinin (HA) with diman.

Substance “CVN2L0, a tandem-linked dimeric CVN2 with zero-linker length (tandem repeat of two cyanovirin-N molecules)” had a pKd of 5.40.
